Reference: patent publication US20210388110A1 (published 2021)

Biological target: T1, soluble human CD3ε chain (human, UniProt P07766 23-126, limits assumed)
T1 construct: the text says soluble human CD3ε chain; also called human CD3 epsilon chain
Experiment: SPR (Biacore)

T1 sequence (P07766 23-126 limits assumed): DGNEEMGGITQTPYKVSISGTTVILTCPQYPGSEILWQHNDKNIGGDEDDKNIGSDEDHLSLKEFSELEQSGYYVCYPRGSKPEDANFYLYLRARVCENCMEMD

B1: TR01H040-E22Hh/none-Hi-Kn010G3/L0228-k0 (antibody, human IgG1, kappa, L234A L235A, N297A)
heavy: QVQLVESGGGLVQPGRSLRLSCAASGFTFSNAWMHWVRQAPGKGLEWVAQIKDKSQNYATYYAESVKGRFTISRADSKNSIYLQMNSLKTEDTAVYYCRYVHYSASYGVDAWGQGTTVTVSSASTKGPSVFPLAPSSKSTSGGTAALGCLVKDYFPEPVTVSWNSGALTSGVHTFPAVLQSSGLYSLSSVVTVPSSSLGTQTYICNVNHKPSNTKVDKKVEPKSCDKTHTCPPCPAPEAAGGPSVFLFPPKPKDTLMISRTPEVTCVVVDVSHEDPEVKFNWYVDGVEVHNAKTKPREEQYASTYRVVSVLTVLHQDWLNGKEYKCKVSNKALPAPIEKTISKAKGQPREPQVYTLPPSRCELTKNQVSLSCAVKGFYPSDIAVEWESNGQPENNYKTTPPVLDSDGSFFLVSKLTVDKSRWQQGNVFSCSVMHEALHNHYTQKSLSLSPDYKDDDDK
chain: EPKSSDKTHTCPPCPAPELLGGPSVFLFPPKPKDTLMISRTPEVTCVVVDVSHEDPEVKFNWYVDGVEVHNAKTKPREEQYNSTYRVVSVLTVLHQDWLNGKEYKCKVSNKALPAPIEKTISKAKGQPREPQVCTLPPSRDELTKNQVSLWCLVKGFYPSDIAVEWESNGQPENNYKTTPPVLDSDGSFFLYSKLTVDKSRWQQGNVFSCSVMHEALHNRYTQKSLSLSP
light: DIVMTQSPLSLPVTPGEPASISCRSSQSPVHSNRNTYIHWYQQKPGQAPRLLIYKVSNRFSGVPDRFSGSGSGTDFTLKISRVEAEDVGVYYCVQGTQVPYTFGQGTKLEIKRTVAAPSVFIFPPSDEQLKSGTASVVCLLNNFYPREAKVQWKVDNALQSGNSQESVTEQDSKDSTYSLSSTLTLSKADYEKHKVYACEVTHQGLSSPVTKSFNRGEC
notes: single-arm
**Q.** With B1 as the binder, how does the Kd read?
**A.** 16 nM

B2: TR01H040-E22Hh/none-Hi-Kn010G3/L0232-k0 (antibody, human IgG1, kappa, L234A L235A, N297A)
heavy: QVQLVESGGGLVQPGRSLRLSCAASGFTFSNAWMHWVRQAPGKGLEWVAQIKDKSQNYATYYAESVKGRFTISRADSKNSIYLQMNSLKTEDTAVYYCRYVHYSASYGVDAWGQGTTVTVSSASTKGPSVFPLAPSSKSTSGGTAALGCLVKDYFPEPVTVSWNSGALTSGVHTFPAVLQSSGLYSLSSVVTVPSSSLGTQTYICNVNHKPSNTKVDKKVEPKSCDKTHTCPPCPAPEAAGGPSVFLFPPKPKDTLMISRTPEVTCVVVDVSHEDPEVKFNWYVDGVEVHNAKTKPREEQYASTYRVVSVLTVLHQDWLNGKEYKCKVSNKALPAPIEKTISKAKGQPREPQVYTLPPSRCELTKNQVSLSCAVKGFYPSDIAVEWESNGQPENNYKTTPPVLDSDGSFFLVSKLTVDKSRWQQGNVFSCSVMHEALHNHYTQKSLSLSPDYKDDDDK
chain: EPKSSDKTHTCPPCPAPELLGGPSVFLFPPKPKDTLMISRTPEVTCVVVDVSHEDPEVKFNWYVDGVEVHNAKTKPREEQYNSTYRVVSVLTVLHQDWLNGKEYKCKVSNKALPAPIEKTISKAKGQPREPQVCTLPPSRDELTKNQVSLWCLVKGFYPSDIAVEWESNGQPENNYKTTPPVLDSDGSFFLYSKLTVDKSRWQQGNVFSCSVMHEALHNRYTQKSLSLSP
light: DIVMTQSPLSLPVTPGEPASISCRSSESLVHSNRNTYLHWYQQKPGQAPRLLIYKVSNRFSGVPDRFSGSGSGTDFTLKISRVEAEDVGVYYCGQGTQVPYTFGQGTKLEIKRTVAAPSVFIFPPSDEQLKSGTASVVCLLNNFYPREAKVQWKVDNALQSGNSQESVTEQDSKDSTYSLSSTLTLSKADYEKHKVYACEVTHQGLSSPVTKSFNRGEC
notes: single-arm
**Q.** Which Kd does the source give for B2 here?
**A.** 38.6 nM

B3: TR01H040-E22Hh/none-Hi-Kn010G3/L0234-k0 (antibody, human IgG1, kappa, L234A L235A, N297A)
heavy: QVQLVESGGGLVQPGRSLRLSCAASGFTFSNAWMHWVRQAPGKGLEWVAQIKDKSQNYATYYAESVKGRFTISRADSKNSIYLQMNSLKTEDTAVYYCRYVHYSASYGVDAWGQGTTVTVSSASTKGPSVFPLAPSSKSTSGGTAALGCLVKDYFPEPVTVSWNSGALTSGVHTFPAVLQSSGLYSLSSVVTVPSSSLGTQTYICNVNHKPSNTKVDKKVEPKSCDKTHTCPPCPAPEAAGGPSVFLFPPKPKDTLMISRTPEVTCVVVDVSHEDPEVKFNWYVDGVEVHNAKTKPREEQYASTYRVVSVLTVLHQDWLNGKEYKCKVSNKALPAPIEKTISKAKGQPREPQVYTLPPSRCELTKNQVSLSCAVKGFYPSDIAVEWESNGQPENNYKTTPPVLDSDGSFFLVSKLTVDKSRWQQGNVFSCSVMHEALHNHYTQKSLSLSPDYKDDDDK
chain: EPKSSDKTHTCPPCPAPELLGGPSVFLFPPKPKDTLMISRTPEVTCVVVDVSHEDPEVKFNWYVDGVEVHNAKTKPREEQYNSTYRVVSVLTVLHQDWLNGKEYKCKVSNKALPAPIEKTISKAKGQPREPQVCTLPPSRDELTKNQVSLWCLVKGFYPSDIAVEWESNGQPENNYKTTPPVLDSDGSFFLYSKLTVDKSRWQQGNVFSCSVMHEALHNRYTQKSLSLSP
light: DIVMTQSPLSLPVTPGEPASISCRSSQEPVHSNRNTYLHWYQQKPGQAPRLLIYKVSNRFRGVPDRFSGSGSGTDFTLKISRVEAEDVGVYYCGQGTQVPYTFGQGTKLEIKRTVAAPSVFIFPPSDEQLKSGTASVVCLLNNFYPREAKVQWKVDNALQSGNSQESVTEQDSKDSTYSLSSTLTLSKADYEKHKVYACEVTHQGLSSPVTKSFNRGEC
notes: single-arm
**Q.** Which Kd does the source give for B3 here?
**A.** 24 nM

B4: TR01H040-E22Hh/none-Hi-Kn010G3/L0233-k0 (antibody, human IgG1, kappa, L234A L235A, N297A)
heavy: QVQLVESGGGLVQPGRSLRLSCAASGFTFSNAWMHWVRQAPGKGLEWVAQIKDKSQNYATYYAESVKGRFTISRADSKNSIYLQMNSLKTEDTAVYYCRYVHYSASYGVDAWGQGTTVTVSSASTKGPSVFPLAPSSKSTSGGTAALGCLVKDYFPEPVTVSWNSGALTSGVHTFPAVLQSSGLYSLSSVVTVPSSSLGTQTYICNVNHKPSNTKVDKKVEPKSCDKTHTCPPCPAPEAAGGPSVFLFPPKPKDTLMISRTPEVTCVVVDVSHEDPEVKFNWYVDGVEVHNAKTKPREEQYASTYRVVSVLTVLHQDWLNGKEYKCKVSNKALPAPIEKTISKAKGQPREPQVYTLPPSRCELTKNQVSLSCAVKGFYPSDIAVEWESNGQPENNYKTTPPVLDSDGSFFLVSKLTVDKSRWQQGNVFSCSVMHEALHNHYTQKSLSLSPDYKDDDDK
chain: EPKSSDKTHTCPPCPAPELLGGPSVFLFPPKPKDTLMISRTPEVTCVVVDVSHEDPEVKFNWYVDGVEVHNAKTKPREEQYNSTYRVVSVLTVLHQDWLNGKEYKCKVSNKALPAPIEKTISKAKGQPREPQVCTLPPSRDELTKNQVSLWCLVKGFYPSDIAVEWESNGQPENNYKTTPPVLDSDGSFFLYSKLTVDKSRWQQGNVFSCSVMHEALHNRYTQKSLSLSP
light: DIVMTQSPLSLPVTPGEPASISCRSSQELVHSNRNTYLHWYQQKPGQAPRLLIYKVSNRFSGVPDRFSGSGSGTDFTLKISRVEAEDVGVYYCGQGTQVPYTFGQGTKLEIKRTVAAPSVFIFPPSDEQLKSGTASVVCLLNNFYPREAKVQWKVDNALQSGNSQESVTEQDSKDSTYSLSSTLTLSKADYEKHKVYACEVTHQGLSSPVTKSFNRGEC
notes: single-arm
**Q.** For B4, which Kd is on record?
**A.** 40.1 nM

B5: TR01H040-E22Hh/none-Hi-Kn010G3/L0231-k0 (antibody, human IgG1, kappa, L234A L235A, N297A)
heavy: QVQLVESGGGLVQPGRSLRLSCAASGFTFSNAWMHWVRQAPGKGLEWVAQIKDKSQNYATYYAESVKGRFTISRADSKNSIYLQMNSLKTEDTAVYYCRYVHYSASYGVDAWGQGTTVTVSSASTKGPSVFPLAPSSKSTSGGTAALGCLVKDYFPEPVTVSWNSGALTSGVHTFPAVLQSSGLYSLSSVVTVPSSSLGTQTYICNVNHKPSNTKVDKKVEPKSCDKTHTCPPCPAPEAAGGPSVFLFPPKPKDTLMISRTPEVTCVVVDVSHEDPEVKFNWYVDGVEVHNAKTKPREEQYASTYRVVSVLTVLHQDWLNGKEYKCKVSNKALPAPIEKTISKAKGQPREPQVYTLPPSRCELTKNQVSLSCAVKGFYPSDIAVEWESNGQPENNYKTTPPVLDSDGSFFLVSKLTVDKSRWQQGNVFSCSVMHEALHNHYTQKSLSLSPDYKDDDDK
chain: EPKSSDKTHTCPPCPAPELLGGPSVFLFPPKPKDTLMISRTPEVTCVVVDVSHEDPEVKFNWYVDGVEVHNAKTKPREEQYNSTYRVVSVLTVLHQDWLNGKEYKCKVSNKALPAPIEKTISKAKGQPREPQVCTLPPSRDELTKNQVSLWCLVKGFYPSDIAVEWESNGQPENNYKTTPPVLDSDGSFFLYSKLTVDKSRWQQGNVFSCSVMHEALHNRYTQKSLSLSP
light: DIVMTQSPLSLPVTPGEPASISCRSSQSPVHSNRNTYIHWYQQKPGQAPRLLIYKVSNRFSGVPDRFSGSGSGTDFTLKISRVEAEDVGVYYCYQGTQWPYTFGQGTKLEIKRTVAAPSVFIFPPSDEQLKSGTASVVCLLNNFYPREAKVQWKVDNALQSGNSQESVTEQDSKDSTYSLSSTLTLSKADYEKHKVYACEVTHQGLSSPVTKSFNRGEC
notes: single-arm
**Q.** B5 was tested. Which Kd did it give?
**A.** 7.75 nM

B6: TR01H040-E22Hh/none-Hi-Kn010G3/L0235-k0 (antibody, human IgG1, kappa, L234A L235A, N297A)
heavy: QVQLVESGGGLVQPGRSLRLSCAASGFTFSNAWMHWVRQAPGKGLEWVAQIKDKSQNYATYYAESVKGRFTISRADSKNSIYLQMNSLKTEDTAVYYCRYVHYSASYGVDAWGQGTTVTVSSASTKGPSVFPLAPSSKSTSGGTAALGCLVKDYFPEPVTVSWNSGALTSGVHTFPAVLQSSGLYSLSSVVTVPSSSLGTQTYICNVNHKPSNTKVDKKVEPKSCDKTHTCPPCPAPEAAGGPSVFLFPPKPKDTLMISRTPEVTCVVVDVSHEDPEVKFNWYVDGVEVHNAKTKPREEQYASTYRVVSVLTVLHQDWLNGKEYKCKVSNKALPAPIEKTISKAKGQPREPQVYTLPPSRCELTKNQVSLSCAVKGFYPSDIAVEWESNGQPENNYKTTPPVLDSDGSFFLVSKLTVDKSRWQQGNVFSCSVMHEALHNHYTQKSLSLSPDYKDDDDK
chain: EPKSSDKTHTCPPCPAPELLGGPSVFLFPPKPKDTLMISRTPEVTCVVVDVSHEDPEVKFNWYVDGVEVHNAKTKPREEQYNSTYRVVSVLTVLHQDWLNGKEYKCKVSNKALPAPIEKTISKAKGQPREPQVCTLPPSRDELTKNQVSLWCLVKGFYPSDIAVEWESNGQPENNYKTTPPVLDSDGSFFLYSKLTVDKSRWQQGNVFSCSVMHEALHNRYTQKSLSLSP
light: DIVMTQSPLSLPVTPGEPASISCRSSQEPVHSNRNTYLHWYQQKPGQAPRLLIYKVSNRFSGVPDRFSGSGSGTDFTLKISRVEAEDVGVYYCYQGTQVPYTFGQGTKLEIKRTVAAPSVFIFPPSDEQLKSGTASVVCLLNNFYPREAKVQWKVDNALQSGNSQESVTEQDSKDSTYSLSSTLTLSKADYEKHKVYACEVTHQGLSSPVTKSFNRGEC
notes: single-arm
**Q.** How did the Kd turn out when B6 was run?
**A.** 2.81 nM
